1 molecule from publication PMC12440816, “Cell cycle regulation has shaped replication origins in budding yeast” (Nature Structural & Molecular Biology, 2025) can be followed below.

One assay has as its target T1, Mcm3 (Saccharomyces cerevisiae, UniProt P24279 1-971).
T1 construct: Mcm3 of S. cerevisiae; Subunit of m5, for the subunit pairs of the SH structure; source: subunit of purified MCM–Cdt1 (previously described methods)
Nature of the assay: cryo-EM structure; SH and DH on nucleosome-flanked ARS1 (15 nM) loaded by Orc6-4A ORC (40 nM) pre-phosphorylated by CDK, Cdc6 (40 nM), MCM–Cdt1 (80 nM), 2.2 mM ATP, 30 °C, 30 min. The note with it: both partners purified.

The next assay addresses T2, Mcm4 (Saccharomyces cerevisiae, UniProt P30665 1-933).
T2 construct: Mcm4 of S. cerevisiae; Subunit of m5, for the subunit pairs of the SH structure; source: subunit of purified MCM–Cdt1 (previously described methods)
T2 sequence: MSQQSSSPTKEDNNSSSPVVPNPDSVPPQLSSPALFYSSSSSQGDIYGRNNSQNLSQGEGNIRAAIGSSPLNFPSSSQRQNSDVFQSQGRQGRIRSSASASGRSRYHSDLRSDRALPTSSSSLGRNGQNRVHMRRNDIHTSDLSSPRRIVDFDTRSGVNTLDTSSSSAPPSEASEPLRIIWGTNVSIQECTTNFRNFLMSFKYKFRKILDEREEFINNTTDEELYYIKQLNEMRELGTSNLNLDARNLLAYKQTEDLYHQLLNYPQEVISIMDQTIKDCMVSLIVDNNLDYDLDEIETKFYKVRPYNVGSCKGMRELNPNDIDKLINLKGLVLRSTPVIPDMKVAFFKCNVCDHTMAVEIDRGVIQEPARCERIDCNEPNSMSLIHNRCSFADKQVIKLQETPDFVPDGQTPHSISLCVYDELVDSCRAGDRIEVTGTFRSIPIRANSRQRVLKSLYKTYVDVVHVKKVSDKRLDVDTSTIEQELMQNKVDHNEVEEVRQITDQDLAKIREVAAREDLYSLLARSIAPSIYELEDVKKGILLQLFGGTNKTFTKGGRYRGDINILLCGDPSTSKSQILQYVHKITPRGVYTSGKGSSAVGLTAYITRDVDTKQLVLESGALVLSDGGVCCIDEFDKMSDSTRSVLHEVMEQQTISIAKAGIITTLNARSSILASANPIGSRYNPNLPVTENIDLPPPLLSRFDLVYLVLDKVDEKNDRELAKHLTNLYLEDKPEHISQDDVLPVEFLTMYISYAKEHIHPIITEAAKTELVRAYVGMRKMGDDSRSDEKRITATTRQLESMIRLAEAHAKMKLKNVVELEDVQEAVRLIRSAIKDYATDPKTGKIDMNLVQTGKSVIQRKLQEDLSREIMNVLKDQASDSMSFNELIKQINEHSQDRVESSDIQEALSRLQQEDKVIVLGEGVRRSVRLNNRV
The description is as above. The settings on record: both partners purified.

T1 sequence (P24279 whole entry): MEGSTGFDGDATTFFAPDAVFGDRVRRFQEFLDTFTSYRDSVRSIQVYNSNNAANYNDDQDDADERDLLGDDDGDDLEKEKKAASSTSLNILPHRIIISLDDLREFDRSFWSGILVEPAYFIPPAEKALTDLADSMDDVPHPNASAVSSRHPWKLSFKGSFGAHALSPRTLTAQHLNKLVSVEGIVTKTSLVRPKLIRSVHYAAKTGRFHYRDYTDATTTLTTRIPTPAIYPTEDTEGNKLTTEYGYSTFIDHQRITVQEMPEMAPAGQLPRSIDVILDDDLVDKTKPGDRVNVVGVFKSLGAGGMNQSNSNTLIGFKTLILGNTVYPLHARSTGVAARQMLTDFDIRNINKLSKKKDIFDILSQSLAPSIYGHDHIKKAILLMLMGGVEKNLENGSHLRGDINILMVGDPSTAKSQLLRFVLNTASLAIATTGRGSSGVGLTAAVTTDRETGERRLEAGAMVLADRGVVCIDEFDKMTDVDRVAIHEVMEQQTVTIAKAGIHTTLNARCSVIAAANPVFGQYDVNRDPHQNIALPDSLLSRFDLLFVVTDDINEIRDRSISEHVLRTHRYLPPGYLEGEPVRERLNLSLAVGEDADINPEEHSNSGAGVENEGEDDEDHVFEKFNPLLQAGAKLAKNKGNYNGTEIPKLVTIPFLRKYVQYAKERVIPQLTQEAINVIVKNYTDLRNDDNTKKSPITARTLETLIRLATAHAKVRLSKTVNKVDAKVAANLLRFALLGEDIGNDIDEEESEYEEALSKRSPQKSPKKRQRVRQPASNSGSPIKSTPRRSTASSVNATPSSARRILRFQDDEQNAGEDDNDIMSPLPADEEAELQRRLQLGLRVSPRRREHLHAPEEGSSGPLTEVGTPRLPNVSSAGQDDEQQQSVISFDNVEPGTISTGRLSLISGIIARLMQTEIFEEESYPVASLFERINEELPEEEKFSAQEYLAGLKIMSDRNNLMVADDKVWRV

B1: Mcm7 (natural protein, Saccharomyces cerevisiae)
chain: MSAALPSIQLPVDYNNLFNEITDFLVTFKQDTLSSDATRNENEDENLDAENIEQHLLEKGPKYMAMLQKVANRELNSVIIDLDDILQYQNEKFLQGTQADDLVSAIQQNANHFTELFCRAIDNNMPLPTKEIDYKDDVLDVILNQRRLRNERMLSDRTNEIRSENLMDTTMDPPSSMNDALREVVEDETELFPPNLTRRYFLYFKPLSQNCARRYRKKAISSKPLSVRQIKGDFLGQLITVRGIITRVSDVKPAVEVIAYTCDQCGYEVFQEVNSRTFTPLSECTSEECSQNQTKGQLFMSTRASKFSAFQECKIQELSQQVPVGHIPRSLNIHVNGTLVRSLSPGDIVDVTGIFLPAPYTGFKALKAGLLTETYLEAQFVRQHKKKFASFSLTSDVEERVMELITSGDVYNRLAKSIAPEIYGNLDVKKALLLLLVGGVDKRVGDGMKIRGDINVCLMGDPGVAKSQLLKAICKISPRGVYTTGKGSSGVGLTAAVMKDPVTDEMILEGGALVLADNGICCIDEFDKMDESDRTAIHEVMEQQTISISKAGINTTLNARTSILAAANPLYGRYNPRLSPLDNINLPAALLSRFDILFLMLDIPSRDDDEKLAEHVTYVHMHNKQPDLDFTPVEPSKMREYIAYAKTKRPVMSEAVNDYVVQAYIRLRQDSKREMDSKFSFGQATPRTLLGIIRLSQALAKLRLADMVDIDDVEEALRLVRVSKESLYQETNKSKEDESPTTKIFTIIKKMLQETGKNTLSYENIVKTVRLRGFTMLQLSNCIQEYSYLNVWHLINEGNTLKFVDDGTMDTDQEDSLVSTPKLAPQTTASANVSAQDSDIDLQDA
notes: Mcm7 of S. cerevisiae; Subunit of m5, for the subunit pairs of the SH structure; source: subunit of purified MCM–Cdt1 (previously described methods)
On to B1, for which the binding result with Mcm3 and with Mcm4 was “binds” in each case.
